# From patent US20220411491A1 (Hoffmann-La Roche, published 2022)
# Changes are numbered by the printed parent chain.
# B1: P1AE5739 (antibody, V domains shown)
# VH: EVQLVESGGGVVQPGRSLRLSCAASGFSFSNYGMAWVRQAPGKGLEWVASISTGGGNTYYRDSVKGRFTISRDNAKNTLYLQMNSLRAEDTAVYYCTRHDRGGLYWGQGTMVTVSS
# VL: DIVMTQSPLSLPVTPGEPASISCRSSKSLLHSNGITYVYWYLQKPGQSPQVLIYRMSNLASGVPDRFSGSGSGTDFTLKISRVEAEDVGVYHCGQLLENPYTFGQGTKLEIK
# B2: P1AE5734 (antibody, V domains shown)
# VH: B1 VH with E1Q, A75S
# VL: B1 VL
# B3: P1AE5735 (antibody, V domains shown)
# VH: B1 VH with E1Q, A75S
# VL: B1 VL with Q47K
# B4: P1AE5736 (antibody, V domains shown)
# VH: B1 VH with E1Q, A75S
# VL: B1 VL with V51L, L59R
# B5: P1AE5740 (antibody, V domains shown)
# VH: B1 VH
# VL: B1 VL with Q47K
# B6: P1AE5741 (antibody, V domains shown)
# VH: B1 VH
# VL: B1 VL with V51L, L59R
# B7: P1AE5744 (antibody, V domains shown)
# VH: B1 VH with E1Q, R61A, A75S
# VL: B1 VL
# B8: P1AE5745 (antibody, V domains shown)
# VH: B1 VH with E1Q, R61A, A75S
# VL: B1 VL with Q47K
# B9: P1AE5746 (antibody, V domains shown)
# VH: B1 VH with E1Q, R61A, A75S
# VL: B1 VL with V51L, L59R
# B10: P1AE5750 (antibody, V domains shown)
# VH: B1 VH with R61A
# VL: B1 VL
# B11: P1AE5751 (antibody, V domains shown)
# VH: B1 VH with R61A
# VL: B1 VL with Q47K
# B12: P1AE5752 (antibody, V domains shown)
# VH: B1 VH with R61A
# VL: B1 VL with V51L, L59R
# B13: P1AE5755 (antibody, V domains shown)
# VH: B1 VH with V11L, R16G
# VL: B1 VL
# B14: P1AE5756 (antibody, V domains shown)
# VH: B1 VH with V11L, R16G
# VL: B1 VL with Q47K
# B15: P1AE5757 (antibody, V domains shown)
# VH: B1 VH with V11L, R16G
# VL: B1 VL with V51L, L59R
# B16: P1AE5760 (antibody, V domains shown)
# VH: B1 VH with V11L, R16G, R61A
# VL: B1 VL
# B17: P1AE5761 (antibody, V domains shown)
# VH: B1 VH with V11L, R16G, R61A
# VL: B1 VL with Q47K
# B18: P1AE5762 (antibody, V domains shown)
# VH: B1 VH with V11L, R16G, R61A
# VL: B1 VL with V51L, L59R
# B19: P1AE5742 (antibody, V domains shown)
# VH: B1 VH
# VL: DIVMTQSPDSLAVSLGERATINCKSSKSLLHSNGITYVYWYQQKPGQPPKLLIYRMSNLASGVPDRFSGSGSGTDFTLTISSLQAEDVAVYHCGQLLENPYTFGQGTKLEIK
# B20: P1AE5737 (antibody, V domains shown)
# VH: B1 VH with E1Q, A75S
# VL: B19 VL
# B21: P1AE5747 (antibody, V domains shown)
# VH: B1 VH with E1Q, R61A, A75S
# VL: B19 VL
# B22: P1AE5753 (antibody, V domains shown)
# VH: B1 VH with R61A
# VL: B19 VL
# B23: P1AE5758 (antibody, V domains shown)
# VH: B1 VH with V11L, R16G
# VL: B19 VL
# B24: P1AE5763 (antibody, V domains shown)
# VH: B1 VH with V11L, R16G, R61A
# VL: B19 VL
# B25: P1AE5743 (antibody, V domains shown)
# VH: B1 VH
# VL: EIVLTQSPGTLSLSPGERATLSCRASKSLLHSNGITYVYWYQQKPGQAPRLLIYRMSNLASGIPDRFSGSGSGTDFTLTISRLEPEDFAVYHCGQLLENPYTFGQGTKLEIK
# B26: P1AE5738 (antibody, V domains shown)
# VH: B1 VH with E1Q, A75S
# VL: B25 VL
# B27: P1AE5749 (antibody, V domains shown)
# VH: B1 VH with E1Q, R61A, A75S
# VL: B25 VL
# B28: P1AE5754 (antibody, V domains shown)
# VH: B1 VH with R61A
# VL: B25 VL
# B29: P1AE5759 (antibody, V domains shown)
# VH: B1 VH with V11L, R16G
# VL: B25 VL
# B30: P1AE5764 (antibody, V domains shown)
# VH: B1 VH with V11L, R16G, R61A
# VL: B25 VL
# B31: P1AE5733 (antibody, V domains shown)
# VH: EVQLVESGGGLVQPGRSLKLSCAASGFSFSNYGMAWVRQAATKGLEWVASISTGGGNTYYRDSVKGRFIVSRDNAKNTQYLQMDSLRSEDTATYYCTRHDRGGLYWGQGVMVTVSS
# VL: DIVMTQAPLSVSVTPGESASISCRSSKSLLHSNGITYVYWYFQKPGKSPQVLIYRMSNLASGVPDRFSGSGSETDFTLKISRVEAEDVGIYHCGQLLENPYTFGAGTELELK
# B32: 10B10-TCB (bispecific antibody, human IgG1, kappa, L234A L235A)
# light 1: DIQLTQSPHSLSASLGETVSIECLASEGISNYLAWFHQKPGKSPQLLIYYASSLQDGVPSRFSGSGSGTQYSLKISNMQPEDEGVYYCQQGYKYPLTFGSGTKLEIKRTVAAPSVFIFPPSDRKLKSGTASVVCLLNNFYPREAKVQWKVDNALQSGNSQESVTEQDSKDSTYSLSSTLTLSKADYEKHKVYACEVTHQGLSSPVTKSFNRGEC
# light 2: EVQLLESGGGLVQPGGSLRLSCAASGFTFSTYAMNWVRQAPGKGLEWVSRIRSKYNNYATYYADSVKGRFTISRDDSKNTLYLQMNSLRAEDTAVYYCVRHGNFGNSYVSWFAYWGQGTLVTVSSASVAAPSVFIFPPSDEQLKSGTASVVCLLNNFYPREAKVQWKVDNALQSGNSQESVTEQDSKDSTYSLSSTLTLSKADYEKHKVYACEVTHQGLSSPVTKSFNRGEC
# heavy 1: EVQLVESGGGLVQPGRSMKLSCAASGFTFTNFYMAWVRQAPTKALEWVASINTGGGYTYYRDSVKGRFTVSRDNTRSTLYLQMDSLRSEETATYYCARHLTYYGRYYYFDYWGQGVMVTVSSASTKGPSVFPLAPSSKSTSGGTAALGCLVEDYFPEPVTVSWNSGALTSGVHTFPAVLQSSGLYSLSSVVTVPSSSLGTQTYICNVNHKPSNTKVDEKVEPKSCDKTHTCPPCPAPEAAGGPSVFLFPPKPKDTLMISRTPEVTCVVVDVSHEDPEVKFNWYVDGVEVHNAKTKPREEQYNSTYRVVSVLTVLHQDWLNGKEYKCKVSNKALGAPIEKTISKAKGQPREPQVCTLPPSRDELTKNQVSLSCAVKGFYPSDIAVEWESNGQPENNYKTTPPVLDSDGSFFLVSKLTVDKSRWQQGNVFSCSVMHEALHNHYTQKSLSLSPGK
# heavy 2: not shown
# Molecular target: T1, human GPRC5D (human, UniProt Q9NZD1 1-345)
# T1 sequence (Q9NZD1 whole entry): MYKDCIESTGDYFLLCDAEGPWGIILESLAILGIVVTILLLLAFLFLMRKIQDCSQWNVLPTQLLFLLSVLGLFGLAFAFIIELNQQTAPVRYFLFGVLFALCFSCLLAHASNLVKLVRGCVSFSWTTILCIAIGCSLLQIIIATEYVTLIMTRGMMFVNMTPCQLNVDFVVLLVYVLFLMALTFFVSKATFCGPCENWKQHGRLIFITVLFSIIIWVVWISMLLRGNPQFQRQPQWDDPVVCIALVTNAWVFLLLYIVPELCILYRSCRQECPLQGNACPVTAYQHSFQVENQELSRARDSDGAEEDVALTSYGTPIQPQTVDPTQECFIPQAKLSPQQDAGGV
# Experiment: cell-based or functional assay
row,Binder,CAR-J2 EC50 [µg/mL]
1,B1,0.0235
2,B2,0.0415
3,B3,0.0821
4,B4,0.00138
5,B5,0.00896
6,B6,0.0014
7,B7,0.00363
8,B8,0.00162
9,B9,0.514
10,B10,0.0206
11,B11,0.00644
12,B12,0.509
13,B13,0.152
14,B14,0.17
15,B15,0.145
16,B16,0.19

row,Binder,CAR-J2 EC50 [µg/mL]
1,B17,0.0746
2,B18,0.0842
3,B19,0.0619
4,B20,0.00295
5,B21,0.183
6,B22,0.03
7,B23,0.19
8,B24,0.00547
9,B25,0.583
10,B26,0.397
11,B27,0.0826
12,B28,0.00889
13,B29,0.0157
14,B30,0.0782
15,B31,0.00265

# Molecular target: T1, human GPRC5D
# Experiment: cell-based or functional assay
# Remark: another data set of the same source
Binder,"EC50 of in vitro killing, AMO-1 [nM]","EC50 of in vitro killing, EJM [nM]","EC50 of in vitro killing, L363 [nM]","EC50 of in vitro killing, MOLP-2 [nM]","EC50 of in vitro killing, NCI-H929 [nM]","EC50 of in vitro killing, OPM-2 [nM]","EC50 of in vitro killing, RPMI [nM]"
B32,0.084,0.079,0.034,0.16,0.056,0.028,0.965
